Biological target: T1, Ror2(518–525) peptide (human)
T1 chain: REEFRHEA
Test: crystal structure

- binding result: binds
B1: PFA1 Fab (Fab fragment of the monoclonal anti-Aβ antibody PFA1, Protofibril antibody 1) (Fab, V domains shown)
VH: QVTLKESGPGILKPSQTLSLTCSFSGFSLSTSGMGVGWIRQPSGKGLEWLAHIWWDDDRSYNPSLKSQLTISKDAARNQVFLRITSVDTADTATYYCVRRAHTTVLGDWFAYWGQGTLVTVSA
VL: DVLMTQTPLSLPVSLGDQASISCRSSQSIVHSNGNTYLEWYLQKPGQSPKLLIYKVSNRFSGVPDRFSGSGSGTDFTLKISRVEAEDLGVYYCFQGSHVPLTFGAGTKLELK
